Reference: patent US20250051458A1, “Methods for Treating Neurodegeneration Targeting IGF1/IGF1R” (The Schepens Eye Research Institute, Inc., priority 2021, published 2025)

Test system: retinal microglia
Assay: Proteome profiler mouse cytokine array on supernatants of LPS-treated retinal microglial cultures
Format: cell-based
Conditions: IGFBPL1 400 ng/ml added 6 hr after LPS 1 μg/ml; total 48 hours
Procedure: Retinal microglia isolation started from dissecting retinas out from CX3CR1/GFP mice. The single cell suspension was obtained followed by papain digestion (20 units; Worthington, Lk003150). Tap every 3-5 mins until completely digested and then add equal volume of inhibitor to neutralize the reaction. Then the supernatants were removed by centrifuge at 300 g for 8 mins. Resuspend retinal cell pellets from CX3CR1/GFP mice into cell staining buffer (BioLegend, 420201) with pacific blue anti-mouse CD11b primary antibody (Biolegend, 101224). […]
As described above, microglial cells were sorted from CX3CR1/GFP mice as described above. […] The array membranes were imaged with iBright CL1500 imaging system (ThermoFisher Scientific, USA) and the results were analyzed using ImageJ software.
To investigate if IGFBPL1 directly mediates microglial function, we studied gene profiling changes in isolated microglial cultures treated by IGFBPL1. Retinal microglia were purified from mice expressing green fluorescence protein (GFP) driven under a microglial specific promoter Cx3cr1 (Cx3cr1-Gfp) using fluorescence-activated cell sorting (FACS)^12. […] This effects of IGFBPL1 on suppressing microglial activation were verified by cytokine arrays, which measured 36 mouse pro-inflammatory cytokines, chemokines from supernatants of microglial cultures. […]

B1: IGFBPL1: insulin-like growth factor binding protein like protein 1; recombinant protein (R&D system, 4130-BL) (protein)
chain: LGLRDAGRRHPECSPCQQDRCPAPSPCPAPWISARDECGCCARCLGAEGASCGGPVGSRCGPGLVCASRASGTAPEGTGLCVCAQRGAVCGSDGRSYSSICALRLRARHAPRAHHGHLHKARDGPCEFAPVVLMPPRDIHNVTGTQVFLSCEVKAVPTPVITWKKVKHSPEGTEGLEELPGDHVNIAVQVRGGPSDHETTSWILINPLRKEDEGVYHCHAANAIGEAQSHGTVTVLDLNRYKSLYSSVPGDLL
Reversal of LPS-induced inflammatory cytokines (cytokine array, 36 cytokines/chemokines): completely reverted the LPS-induced inflammatory cytokines to the control levels
